Changes are numbered by the printed parent chain. Read-outs that look alike come from different tables or passages of the source. One block for each binder: values may come before it.
Assays:
Assay in all cases: SPR
FcgRIIa H = biological target: T1, FcgRIIa H (human, UniProt P12318)
T1 chain: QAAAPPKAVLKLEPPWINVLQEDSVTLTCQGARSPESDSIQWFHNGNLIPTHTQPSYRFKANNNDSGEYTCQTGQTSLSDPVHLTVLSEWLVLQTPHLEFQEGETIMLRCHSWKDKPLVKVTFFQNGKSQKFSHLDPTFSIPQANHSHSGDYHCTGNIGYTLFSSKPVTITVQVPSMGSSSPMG

FcgRIa = biological target: T2, FcgRIa (human, UniProt P12314)
T2 chain: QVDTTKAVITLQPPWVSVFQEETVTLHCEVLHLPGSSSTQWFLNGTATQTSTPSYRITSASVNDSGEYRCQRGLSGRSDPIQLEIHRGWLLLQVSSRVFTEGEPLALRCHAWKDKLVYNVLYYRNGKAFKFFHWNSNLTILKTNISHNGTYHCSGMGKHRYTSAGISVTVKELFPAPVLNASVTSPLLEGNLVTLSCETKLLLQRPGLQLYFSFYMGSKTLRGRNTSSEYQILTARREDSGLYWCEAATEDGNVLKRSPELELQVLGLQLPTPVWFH

FcgRIIb [1] = biological target: T3, FcgRIIb (human, UniProt P31994)
T3 chain: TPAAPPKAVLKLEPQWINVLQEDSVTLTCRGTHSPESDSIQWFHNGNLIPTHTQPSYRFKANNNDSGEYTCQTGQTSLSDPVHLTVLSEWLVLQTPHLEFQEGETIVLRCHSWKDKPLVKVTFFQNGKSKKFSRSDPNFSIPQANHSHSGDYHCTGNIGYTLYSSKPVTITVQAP

FcgRIIIa F [2] = biological target: T4, FcgRIIIa F (human, UniProt P08637)
FcgRIIIa V = FcgRIIIa V (human, UniProt P08637)
FcgRIIa R = biological target: T5, FcgRIIa R (human, UniProt P12318)
T5 chain: T1 chain with H134R

FcgRIIb [3] = biological target: T3, FcgRIIb
FcgRIIIa F [4] = biological target: T4, FcgRIIIa F; remark: listed apart in the source

T4 sequence (P08637 17-208): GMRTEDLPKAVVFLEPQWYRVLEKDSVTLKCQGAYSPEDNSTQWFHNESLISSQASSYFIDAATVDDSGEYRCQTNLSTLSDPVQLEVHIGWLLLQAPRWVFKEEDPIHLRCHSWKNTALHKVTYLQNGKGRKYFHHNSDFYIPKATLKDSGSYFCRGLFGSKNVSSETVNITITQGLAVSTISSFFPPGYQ
Chain of FcgRIIIa V (P08637 17-208 F176V): as the sequence (P08637 17-208) above, with F160V counted along it

B1: H240-Kn172/H240-Hl177/L73-k0 (antibody)
chain 1: QDQLVQSGAEVKKPGASVKVSCKASGFNIKDTYIQWVRQAPGQGLEWMGRIDPLRKQTKYREKFEGRVTITADTSTNTAYMELSSLRSEDTAVYYCVRSGREFDYWGQGTLVTVSSASTKGPSVFPLAPSSKSTSGGTAALGCLVKDYFPEPVTVSWNSGALTSGVHTFPAVLQSSGLYSLSSVVTVPSSSLGTQTYICNVNHKPSNTKVDKKVEPKSCDKTHTCPPCPAPEYYWGPMVFLFPPKPKDTLMISRTPEVTCVVVDVSDEDPEVKFNWYVDGVEVHNAKTKPREEQYNATYRVVSVLTVLHQDWLNGKEYKCKVSNKDLPAPMEKTISKAKGQPREPQVCTLPPSRDELTKNQVSLWCLVKGFYPSDIAVEWESNGQPENNYKTTPPVLDSDGSFFLYSKLTVDKSRWQQGNVFSCSVMHEALHNHYTQKSLSLSP
chain 2: QDQLVQSGAEVKKPGASVKVSCKASGFNIKDTYIQWVRQAPGQGLEWMGRIDPLRKQTKYREKFEGRVTITADTSTNTAYMELSSLRSEDTAVYYCVRSGREFDYWGQGTLVTVSSASTKGPSVFPLAPSSKSTSGGTAALGCLVKDYFPEPVTVSWNSGALTSGVHTFPAVLQSSGLYSLSSVVTVPSSSLGTQTYICNVNHKPSNTKVDKKVEPKSCDKTHTCPPCPAPELLGGPSVFLFPPKPKDTLMISRTPEVTCVVVDVSHEEPEVKFNWYVDGVEVHNAKTKPREEQYNSTYRVVSVLTVLHQDWLNGKEYKCKVSNDALPKPQEETISKAKGQPREPQVYTLPPSRCELTKNQVSLSCAVKGFYPSDIAVEWESNGQPENNYKTTPPVLDSDGSFFLVSKLTVDKSRWQQGNVFSCSVMHEALHNHYTQKSLSLSP
chain 3: DIQMTQSPSSLSASVGDRVTITCRASQDIHKYIAWYQQKPGQAPRLLIQYTSTLQPGVPSRFSGSGSGTDYTFTISSLQPEDIATYYCLQYEQLRTFGGGTKVEIKRTVAAPSVFIFPPSDEQLKSGTASVVCLLNNFYPREAKVQWKVDNALQSGNSQESVTEQDSKDSTYSLSSTLTLSKADYEKHKVYACEVTHQGLSSPVTKSFNRGEC
Kd (FcgRIIa H): 57 nM | Kd (FcgRIa): 0.25 nM | Kd (FcgRIIb [1]): 160 nM | Kd (FcgRIIIa F [2]): 2 nM | Kd (FcgRIIIa V): 0.22 nM | Kd (FcgRIIa R): 29 nM

B2: H240-Kn120/H240-Hl182/L73-k0 (antibody)
chain 1: B1 chain 1 with M331I
chain 2: B1 chain 2 with A230H, Q331I
chain 3: B1 chain 3
Kd (FcgRIIa H): 77 nM | Kd (FcgRIa): 0.18 nM | Kd (FcgRIIb [1]): 240 nM | Kd (FcgRIIIa F [2]): 3.1 nM | Kd (FcgRIIIa V): 0.29 nM | Kd (FcgRIIa R): 40 nM

B3: H240-Kn120/H240-Hl174/L73-k0 (antibody)
chain 1: B1 chain 1 with M331I
chain 2: B1 chain 2 with Q331E
chain 3: B1 chain 3
Kd (FcgRIIa H): 55 nM | Kd (FcgRIa): 0.14 nM | Kd (FcgRIIb [1]): 130 nM | Kd (FcgRIIIa F [2]): 0.51 nM | Kd (FcgRIIIa V): 0.036 nM | Kd (FcgRIIa R): 30 nM

B6: H240-Kn149/H240-Hl068/L73-k0 (antibody)
chain 1: B1 chain 1 with L327W, M331I, K333L
chain 2: B1 chain 2 with Q331I
chain 3: B1 chain 3
Kd (FcgRIIa H): 26 nM | Kd (FcgRIa): 0.38 nM | Kd (FcgRIIb [1]): 150 nM | Kd (FcgRIIIa F [2]): 1.5 nM | Kd (FcgRIIIa V): 0.32 nM | Kd (FcgRIIa R): 19 nM

B7: H240-Kn120/H240-Hl150/L73-k0 (antibody)
chain 1: B1 chain 1 with M331I
chain 2: B1 chain 2 with Q331T
chain 3: B1 chain 3
Kd (FcgRIIa H): 35 nM | Kd (FcgRIa): 0.39 nM | Kd (FcgRIIb [1]): 98 nM | Kd (FcgRIIIa F [2]): 3 nM | Kd (FcgRIIIa V): 0.57 nM | Kd (FcgRIIa R): 20 nM

B8: H240-Kn120/H240-Hl170/L73-k0 (antibody)
chain 1: B1 chain 1 with M331I
chain 2: B1 chain 2 with L327A, Q331I
chain 3: B1 chain 3
Kd (FcgRIIa H): 18 nM | Kd (FcgRIa): 0.19 nM | Kd (FcgRIIb [1]): 67 nM | Kd (FcgRIIIa F [2]): 3.9 nM | Kd (FcgRIIIa V): 0.93 nM | Kd (FcgRIIa R): 8.6 nM

B11: GpH7-A5/GpH7-B78/GpL16-k0 (antibody)
chain 1: not shown
chain 2: QVQLVQSGAEVKKPGASVTVSCKASGYTFTDYEMHWIRQPPGEGLEWIGAIDPKTGDTAYSESFQDRVTLTADKSTSTAYMELSSLTSEDTAVYYCTRFYSYTYWGQGTLVTVSSASTKGPSVFPLAPSSKSTSGGTAALGCLVKDYFPEPVTVSWNSGALTSGVHTFPAVLQSSGLYSLSSVVTVPSSSLGTQTYICNVNHKPSNTKVDKKVEPKSCDKTHTCPPCPAPELLGGPDVFLFPPKPKDTLMISRTPEVTCVVVDVSHEDPEVKFNWYVDGVEVHNAKTKPREEQYNSTYRVVSVLTVLHQDWLNGKEYKCKVSNKALPLPEEKTISKAKGQPREPQVYTLPPSRDELTKNQVSLTCLVKGFYPSDIAVEWESNGQPENNYKTTPPVLDSDGSFFLYSKLTVDKSRWQQGNVFSCSVMHEALHNHYTQESLSLSP
chain 3: DIVMTQSPLSLPVTPGEPASISCQASESLVHSNRNTYLHWYLQKPGQSPQLLIYKVSNRFSGVPDRFSGSGSGTDFTLKISRVEAEDVGVYYCSQNTHVPPTFGQGTKVEIERTVAAPSVFIFPPSDEQLKSGTASVVCLLNNFYPREAKVQWKVDNALQSGNSQESVTEQDSKDSTYSLSSTLTLSKADYEKHKVYACEVTHQGLSSPVTKSFNRGEC
Kd (FcgRIIb [3]): 430 nM | Kd (FcgRIIIa F [4]): 54 nM

B12: GpH7-A57/GpH7-B78/GpL16-k0 (antibody)
chain 1: B11 chain 2 with D354K, H433R, E437K
chain 2: B11 chain 2
chain 3: B11 chain 3
Kd (FcgRIIb [3]): 610 nM | Kd (FcgRIIIa F [4]): 6.2 nM

B13: GpH7-A5/GpH7-B3/GpL16-k0 (antibody)
chain 1: not shown
chain 2: not shown
chain 3: B11 chain 3
Kd (FcgRIIb [3]): 3100 nM | Kd (FcgRIIIa F [4]): 1600 nM

The next lines start with the values.

Kd (FcgRIIa H): 65 nM | Kd (FcgRIa): 0.23 nM | Kd (FcgRIIb [1]): 110 nM | Kd (FcgRIIIa F [2]): 1.4 nM | Kd (FcgRIIIa V): 0.19 nM | Kd (FcgRIIa R): 26 nM
B4: H240-Kn178/H240-Hl068/L73-k0 (antibody)
chain 1: B1 chain 1 with M331I, K333Y
chain 2: B1 chain 2 with Q331I
chain 3: B1 chain 3

Kd (FcgRIIa H): 25 nM | Kd (FcgRIa): 0.16 nM | Kd (FcgRIIb [1]): 130 nM | Kd (FcgRIIIa F [2]): 3.7 nM | Kd (FcgRIIIa V): 0.43 nM | Kd (FcgRIIa R): 19 nM
B5: H240-Kn138/H240-Hl068/L73-k0 (antibody)
chain 1: B1 chain 1 with L327W, M331I
chain 2: B1 chain 2 with Q331I
chain 3: B1 chain 3

Kd (FcgRIIb [3]): 4500 nM | Kd (FcgRIIIa F [4]): 320 nM
B9: GpH7-TA7/GpH7-B3/GpL16-k0 (antibody)
chain 1: B11 chain 2 with L232Y, G234W, D237S, S296A, L328A, E330I, D354K, H433R, E437K
chain 2: not shown
chain 3: B11 chain 3

Kd (FcgRIIb [3]): 3100 nM | Kd (FcgRIIIa F [4]): 1200 nM
B10: GpH7-G1d/GpL16-k0 (antibody)
chain 1: not shown
chain 2: B11 chain 3

Kd (FcgRIIb [3]): 18000 nM | Kd (FcgRIIIa F [4]): 3300 nM
B14: GpH7-TA7/GpH7-TA45/GpL16-k0 (antibody)
chain 1: B11 chain 2 with L232Y, G234W, D237S, S296A, L328A, E330I, D354K, H433R, E437K
chain 2: B11 chain 2 with L232Y, G234W, D237S, S296A, L328A, E330I
chain 3: B11 chain 3

— patent publication US10766960 (dated 2020)
